From patent US6015562, “Targeted forms of methyltrithio antitumor agents” (American Cyanamid Company, dated 2000) come the findings set out here.

In test [1] the target is T1, polymorphic epithelial mucin (PEM) (human, UniProt P15941). As to the kind of experiment: order of binding activity from all the direct binding ELISA assays on PEM.
Test [2] concerns the target T1, polymorphic epithelial mucin (PEM). As to the kind of experiment: direct binding ELISA, PEM-coated microwell plates, culture supernatant.

B1: gL1cH (CDR-grafted light chain gL1 with chimeric heavy chain; plasmids pAL47 and pHMC33) (antibody, V domains shown)
VH: QIQLQQSGPELVKPGASVKISCKASGYTFTDYYINWMKQKPGQGLEWIGWIDPGSGNTKYNEKFKGKATLTVDTSSSTAYMQLSSLTSEDTAVYFCAREKTTYYYAMDYWGQGTSVTVS
VL: DIQMTQSPSTLSASVGDRVTITCRSSKSLLHSNGDTFLYWFQQKPGKAPKLLMYRMSNLASGVPSRFSGSGSGTEFTLTISSLQPDDFATYYCMQHLEYPFTFGQGTKVEVKR
Turning to B1, the binding result in test [1] is “binds”.

B2: cLgH2 (chimeric light chain with CDR-grafted heavy chain gH2; plasmids pAL52 and pAL41) (antibody, V domains shown)
VH: QIQLVQSGAEVKKPGSSVKVSCKASGYTFTDYYINWMRQAPGQGLEWIGWIDPGSGNTKYNEKFKGRATLTVDTSTNTAYMELSSLRSEDTAFYFCAREKTTYYYAMDYWGQGTLVTVSS
VL: DIVMTQAAPSVPVTPGESLSISCRSSKSLLHSNGDTFLYWFLQRPGQSPQLLIYRMSNLASGVPDRFSGSGSGTAFTLRVSRVEAEDVGVYYCMQHLEYPFTFGAGTKLELKR
Turning to B2, the binding result in test [2] was “binds”.
